# Assay results reported in the DeepSol protein solubility set.
# Experiment: soluble on expression in E. coli; label from the status in PepcDB or PDB records
row,Sequence,soluble on expression in E. coli
1,MSLNGNATDSSSSTSSMTENSDGQKQNNEWFHGVLQRQDADELLVKPGSFLLRASEVHGKMSMILSVRHDGKLHNIAVNSDTGENFWFEGHREKSIDQLVQWHMTTSTPITKTSGVKLKYPIGKADWIISHENVIFIKKLGEGAFGEVSLAECEIGGRKVETAVKTMRCQMTRDTRAAFMKEARLMRKYSHPHIVRIIGKIIVKHLPKVGLAVDAHPLMIVMEMCPHGSLLSFLRKNKGKTTLSERLRFCIESADGLAYLEKKQCLHRDIAARNCLLSITDQIKISDFGLSDDKRTEMHDDTLDKVPVKWLAPEVMQDKLYSLKSDVWAFGVLMWEIYADGADPYPGMTNLVTRAKIFCDDYRMTFPETTPPTISEIALKQCWAKLPSDRATMKTVHHKLKDLSMPMSDVSFSMKMKR,not soluble
2,MTSAAQLTALLHLASPALPVGAFSYSQGLEAAVEARHVHDEASAARWIAEGLAVLAACEAPLWLLQYADWQAGRLDAVAERDGWFLATRETRELRLETAQMGWSLARLIAQMGWGAPAMRDALAARAAITFPTAFAAAAVALGIEARDGLTAYSFAWVENQVAAAVKAIPLGQAAGQRILFGLHAAVGQAAEDAARRAACHPPELSTFSPGLGVLSARHETQYSRLFRSLEHHHHHH,not soluble
3,MGSDKIHHHHHHMMVNESADQLYSFALLDEDAKREIRRSLLKAVALPGHLIPFASRDLPIARGWGTGGLQITLSIITPDDTLKVIDQGDDESVNAVNLRRLIHRTTGVATTTDTAAASLIQTRHRIPEEPLRADQILVLQVPMADPLRWVEPSLERAITMHGETDYGKMWVYLYESVVRAGDLRIASQYPVIVNHRYMMDTTPIPRWDVPKLHMAETLYLFGAGREKRIYAVPPHTPVEPLQFEDYPFRTEYRPGQRCARCGAENTFLTSHFVADANGGRWEMTCSDVAFCAKRQGEQRDR,not soluble
4,MGSDKIHHHHHHGSITVILGPMFSGKTTELLRLHDRQIIAKRTCVLVKYAGDTRYDADLVATHSKMTGQGRTVKAHRLSEVQSQIFNDEVQVVSIDEGQFFEDLAETCEELAQRGKVVCVAALNGTFERKPFPQISLLLPYANEIKQVTAVCVECGSQANFSFRSTLDKKVEVIGGSDTYTALCRECY,not soluble
5,MSLASFPHRNLTWNDINFVHTTDTHGWYSGHINQPLYHANWGDFISFTTHMRRIAHSRNQDLLLIDSGDRHDGNGLSDITSPNGLKSTPIFIKQDYDLLTIGNHELYLWENSKQEYETVVNHFQDKYVCSNVDIRLDNGLFVPLGLKYKYFTTPIRGIRVMAFGFLFDFKRFNSGTRVTPMAETIHEPWFQEALKHEVDLIIIVGHTPISHNWGEFYQVHQYLRQFFPDTIIQYFGGHSHIRDFTVFDSLSTGLQSGRYCETVGWTSVNLDKADLNLPVRQRFSRSYIDFNTDSFKYHTNLDKEFDTAKGKLVSKLIRETRKELKLDTLIGYVKTNYYVDYVPIDHPKSIFNLLALKILKTLPKSKHEERITIINTGSIRYDLYKGPYTIDSKFIVSPFENIWVNITVPKSVATKVAAKLNDADYISASRLKPPHQYDLQVQDLSTSPHQAHFEMQEKLPKGYVTHDDFGADGDDTLHRAVVNFPVPNVIQSVEINDEVDSPVNLVFYSFITPNIIWALKELNFSTEQVPTPYSDIYLGTLLNEFVANNEGHHHHHH,soluble
6,MTIDKLKLNTINLRNTFSNRSKPPISIITSTNKPKYFRNTIKNYTRLNYRYKELILIFNIDNIDIDYYKSYAEKIPNVMVFQLNECYSLGYCLNFGVNQSKYNYIAKMDDDDYYGPNYLTDEINAFNYTDAKIIGKCKYFTYFEDTRDLSINNYSQSYDYTNFIAGGTFLIKKELFKTYKFRDVNMSEDAGFLDDCSSHGIKIYSIDPFNYVYMRHKSLNEHTWKIPTTALKKQYFHFYKTTNYIPIVKILEHHHHHH,not soluble
7,MRVEDVMVTDVDTIDITASLEDVLRNYVENAKGSSVVVKEGVRVGIVTTWDVLEAIAEGDDLAEVKVWEVMERDLVTISPRATIKEAAEKMVKNVVWRLLVEEDDEIIGVISATDILRAKMAKRY,soluble
8,MSSLPETLMNRLHDHERLTQNEGEALYDLDLFTLGREADRRRVKKHGKKVFFNSNRHINPTNICQDICKFCAFSSHRKNPNPYAMSIDEILEIAKESTALGARELHVVSAHNPNYGYQWYGEMFKTIKEALPHIHLKAMTAAEVDFLSRRFEKPYEQVLEDMLLWGVDSMPGGGAEIFDEEVRARLCGGKVSSGRWLEIHGYWHSLGKQSNATMLFGHIENRTHRIDHMLRLRELQDRYGGFNAFIPLLYQKENNFLKVERFPTGQEILKTLAISRILLDNIPHIKAYWATLGLNLAMVAQEFGADDLDGTIQKESIQSAAGSGSGHGVSKEELIFQIKDAGFIPVERDSLYNEIQIYA,not soluble
9,MSLSQFKPTWMVKNIYDLTPAQLRANGIKVILTDLDNTLIAWNNPDGTPELRHWLTLLELAGIRVIVVSNNNRKRVDRAVAPFNLDYIHRALKPLSWGILRALRRWHLNRDEVVMVGDQLLTDVWAAHHSGVRSVLVKPILKSDAWVTKGNRLMEKVVMWRLRHNYPELTWQEDLDERKAHEGHHHHHH,soluble
10,MGSDKIHHHHHHMNGNIIVAHGMRHGRQNQALEAFISELVKDDIHHYDIAFLESEHQDLETVMTTLIQSGVDHFKIVPLLIFSAMHYLKDIPNIVHEMKRRYPDIKVEVSEPLGTHPLMRRLIEQRICDALAGDEQQVGVMVVAHGNINGNFTKAHEELQICAQHLQINKPTYARTLYGEISFTHDLESISKRYQKLIVVPLFLYDGRLVNKVKQQMNDMVINTDIHFTPSINFDPILKQIINDRLESLMIPMKI,not soluble
11,MGSDKIHHHHHHMVQAIDNTIATNFLTDAVVERHNFSQLNKTRIRFRIQLKKSTKSAAPKWADVLQAEVSEIESDLVKVTNSEVGLRGIKVFKKLDEAAAQLRQEIASVQEWMSADTGDWVCPIDLAPLVWNQLINIRDNIAPGLRNQLKADYEAGLVDYQERIDQFLSLNTWELAQDKQESVKANLLRAFPTLTDLEDYLQVVIGRPVIIPALSEQLNQQQAECLDQITKFIQQYDQNLEQRLRESALAGGEQLAAQLLEELADWEPGRKPVQFKKKMERHLMKVQVLLANADSEAGSSLEAMMTHLDSIVNDPAIESKNLGSDTRSQLQQKMQEIRIKLLDEQRNLQSLATEDVGLSKATVMSFKFR,not soluble
12,MAHHHHHHMQQENRHLSSADLFKKFTLQNVAQIANISNKEQSQIRGELTEQYPLLADFWEDIMPKKPDIMLVRCHDQVHCVTLVSSQPEVLFFRHHNSPYIPHLKLLHKYPFILPRQQVDIGGCKYVVSGANVMCPGLTSEGGYITPGLAAGAIVAIHVEQKEHAIAVGRMLMSSEEIERVNNGPGIENIHHLGDGLWMNRVLSSSHIGAR,not soluble
13,MLPETDLRRVAAAAAAMHRVAEIRRTRVSGRMDNHERRVGTEWVVTLQGADFPVTIAADHDGSTVSFDDGSSMRVTSDWTPLEHHHHHH,not soluble
14,MGSDKIHHHHHHMNTSYLIDFLENKQVSTITKTKHSYLTYHGLEEGYTYVLKKGIVKTSIILKNGREFNLSYINSTDIVSLLRDEISAYTASPLNVRIESDEAIFYRIPRKTFWDYVNHDTHLQDYVRDYYRIKLTQNIKSLQWMTMNGKKGAVCAFIYKLIDIFGRRGATGILIDFPITNEEIANFCGISTRNSVNRIIHDLKEQHVIDIKNQKIFIYDENYLREFTI,not soluble
15,MGSTKSRPLRDANGTPKFRHESIACVFRVHPQQGVDVLTVIRSRPPYADMSALPSGALETNEMLKDACLRHLSLSGVHPSMVSHIEQLDTRSAIDRDPYDRTIATAHLCLIPWDIDPSVTNGSFTPLVDLDELAFDHKNIIEQGLYRLRAKLSYSNIGFALAPRLFTISDLAKTYSHVLTYNVSPTNLQRILTRRNQLQPTTARAIGSGRPARLFTFTTDRLEITDPFATLKPTESRKCKS,not soluble
